Reference: PMC8971729
pKd: −log10 of the molar value.

Assays:
[1] = molecular target: Human desmoglein-2 Fc chimera protein (DSG2) (human) (UniProt Q14126); experiment: SPR; BIAcore 3000; DSG2-Fc, CAR-Fc and CD46-His (approximately 500 RU) coupled to a CM5 chip; knob protein injected (178 uM, 5x 1:3 dilutions; single-cycle kinetics from 200 uM); 30 uL/min, PBS, 25 °C; equilibrium KD assuming 1:1 Langmuir binding
[2] = molecular target: human CD46 protein (His tag) (human) (UniProt P15529); experiment: as above
human CD46 protein (His tag) (human), sequence (P15529 35-343): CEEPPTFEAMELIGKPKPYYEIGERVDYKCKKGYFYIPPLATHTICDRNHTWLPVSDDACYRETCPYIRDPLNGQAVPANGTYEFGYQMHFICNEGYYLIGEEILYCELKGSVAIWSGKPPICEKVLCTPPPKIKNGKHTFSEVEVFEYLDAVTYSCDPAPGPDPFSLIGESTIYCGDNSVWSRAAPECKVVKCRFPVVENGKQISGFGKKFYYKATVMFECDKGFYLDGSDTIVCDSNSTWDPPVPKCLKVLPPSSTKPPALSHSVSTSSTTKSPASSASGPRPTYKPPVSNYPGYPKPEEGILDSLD

[3] = molecular target: human CXADR Fc chimera protein (CAR) (human) (UniProt P78310); experiment: as above
human CXADR Fc chimera protein (CAR) (human), sequence (P78310 20-237, change not shown): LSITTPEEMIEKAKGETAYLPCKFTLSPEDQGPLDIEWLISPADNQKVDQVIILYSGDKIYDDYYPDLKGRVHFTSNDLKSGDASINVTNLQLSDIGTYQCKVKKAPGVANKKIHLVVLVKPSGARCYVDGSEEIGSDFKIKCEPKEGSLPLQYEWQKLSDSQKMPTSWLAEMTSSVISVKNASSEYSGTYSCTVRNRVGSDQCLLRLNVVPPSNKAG

[4] = molecular target: CAR on CHO-CAR cells (UniProt P78310); experiment: flow cytometry on cells; CHO-CAR cells with serial dilutions of knob protein (0.0001-100 ug/10^5 cells) for 1 h on ice, washed, then stained for CAR with anti-CAR (RmcB) and a labelled secondary antibody; IC50 by non-linear regression; apparent
CAR on CHO-CAR cells, sequence (P78310 20-365): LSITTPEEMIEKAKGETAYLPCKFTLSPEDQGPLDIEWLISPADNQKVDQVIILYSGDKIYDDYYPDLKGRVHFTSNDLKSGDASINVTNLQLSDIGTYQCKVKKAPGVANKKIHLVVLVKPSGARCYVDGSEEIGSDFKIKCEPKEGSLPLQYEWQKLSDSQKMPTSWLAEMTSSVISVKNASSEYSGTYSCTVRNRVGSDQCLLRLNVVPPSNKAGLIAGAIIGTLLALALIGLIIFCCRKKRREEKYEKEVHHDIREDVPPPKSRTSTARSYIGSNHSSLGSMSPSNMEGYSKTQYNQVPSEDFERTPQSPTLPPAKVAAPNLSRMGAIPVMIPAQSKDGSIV

Human desmoglein-2 Fc chimera protein (DSG2) (human), sequence (Q14126 50-609, change not shown): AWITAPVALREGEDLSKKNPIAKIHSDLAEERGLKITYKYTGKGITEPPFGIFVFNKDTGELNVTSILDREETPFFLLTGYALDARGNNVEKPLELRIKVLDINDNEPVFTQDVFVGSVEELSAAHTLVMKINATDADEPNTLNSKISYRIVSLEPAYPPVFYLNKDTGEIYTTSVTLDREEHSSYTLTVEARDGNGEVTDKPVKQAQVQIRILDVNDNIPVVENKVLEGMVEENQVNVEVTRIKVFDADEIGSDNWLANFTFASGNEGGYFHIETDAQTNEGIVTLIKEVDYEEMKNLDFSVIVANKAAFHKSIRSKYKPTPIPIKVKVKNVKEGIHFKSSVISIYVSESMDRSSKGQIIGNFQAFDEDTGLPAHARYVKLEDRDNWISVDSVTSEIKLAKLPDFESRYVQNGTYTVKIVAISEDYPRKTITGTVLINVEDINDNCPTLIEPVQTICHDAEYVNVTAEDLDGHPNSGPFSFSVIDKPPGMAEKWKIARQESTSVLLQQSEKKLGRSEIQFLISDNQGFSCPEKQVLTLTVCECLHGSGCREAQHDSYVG

HAdV-D10 fiber knob protein (domain or fragment)
pKd [1]: 3.90 | pKd [2]: 4.70 | pKd [3]: 6.36 | fold lower apparent affinity than HAdV-C5K (by IC50) [4]: 16.5 fold
